From publication PMC3326387

Target: ecto-FLRT3 (immobilized for SPR) (UniProt Q8BGT1)
Test: SPR

UniProt Q8BGT1, sequence (Q8BGT1 29-528): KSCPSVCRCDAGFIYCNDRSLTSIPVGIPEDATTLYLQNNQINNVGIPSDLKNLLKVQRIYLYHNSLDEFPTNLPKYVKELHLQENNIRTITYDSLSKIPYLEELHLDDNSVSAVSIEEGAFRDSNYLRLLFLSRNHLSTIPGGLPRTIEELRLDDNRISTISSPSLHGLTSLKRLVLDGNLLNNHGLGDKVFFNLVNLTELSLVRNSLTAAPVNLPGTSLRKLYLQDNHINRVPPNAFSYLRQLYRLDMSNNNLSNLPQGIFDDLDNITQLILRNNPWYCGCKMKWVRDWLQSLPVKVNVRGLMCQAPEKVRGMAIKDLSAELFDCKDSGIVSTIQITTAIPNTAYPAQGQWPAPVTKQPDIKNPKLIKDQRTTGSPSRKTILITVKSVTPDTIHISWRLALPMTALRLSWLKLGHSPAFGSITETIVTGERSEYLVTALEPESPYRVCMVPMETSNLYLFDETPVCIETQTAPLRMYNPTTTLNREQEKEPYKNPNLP

ecto-LPHN3-Fc (from UniProt Q80TS3 20-1537) (Fc fusion)
Kd: 14.7 nM
